The values below come from publication PMC3306812 (Molecular Cell, 2012).

For the experiment, the target named is full-length OTUB1 (human, UniProt Q96FW1 1-271). The experiment can be described thus: NMR titration.
full-length OTUB1, sequence (Q96FW1 whole entry): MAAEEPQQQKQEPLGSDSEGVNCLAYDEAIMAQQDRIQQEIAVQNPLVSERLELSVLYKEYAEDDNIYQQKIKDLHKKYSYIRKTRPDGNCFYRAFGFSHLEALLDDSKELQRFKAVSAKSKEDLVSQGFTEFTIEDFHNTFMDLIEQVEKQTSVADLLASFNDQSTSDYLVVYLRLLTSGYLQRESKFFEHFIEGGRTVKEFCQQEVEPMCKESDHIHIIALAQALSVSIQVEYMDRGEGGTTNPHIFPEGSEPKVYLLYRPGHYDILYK

B1: UBC13 (enzyme, UniProt P61088 1-152, looked up)
chain: MAGLPRRIIKETQRLLAEPVPGIKAEPDESNARYFHVVIAGPQDSPFEGGTFKLELFLPEEYPMAAPKVRFMTKIYHPNVDKLGRICLDILKDKWSPALQIRTVLLSIQALLSAPNPDDPLANDVAEQWKTNEAQAIETARAWTRLYAMNNI
B1: the binding result is given as “binds”.
